# According to ChEMBL document CHEMBL1143079, “Designing better coumarin-based fluorogenic substrates for PTP1B” (Bioorg Med Chem Lett, 2008):
# B1: Tyrosine-protein phosphatase non-receptor type 1 (Homo sapiens), P18031 (protein)
# chain: MEMEKEFEQIDKSGSWAAIYQDIRHEASDFPCRVAKLPKNKNRNRYRDVSPFDHSRIKLHQEDNDYINASLIKMEEAQRSYILTQGPLPNTCGHFWEMVWEQKSRGVVMLNRVMEKGSLKCAQYWPQKEEKEMIFEDTNLKLTLISEDIKSYYTVRQLELENLTTQETREILHFHYTTWPDFGVPESPASFLNFLFKVRESGSLSPEHGPVVVHCSAGIGRSGTFCLADTCLLLMDKRKDPSSVDIKKVLLEMRKFRMGLIQTADQLRFSYLAVIEGAKFIMGDSSVQDQWKELSHEDLEPPPEHIPPPPRPPKRILEPHNGKCREFFPNHQWVKEETQEDKDCPIKEEKGSPLNAAPYGIESMSQDTEVRSRVVGGSLRGAQAASPAKGEPSLPEKDEDHALSYWKPFLVNMCVATVLTAGAYLCYRFLFNSNT
# How the values were obtained:
# [1] = substrate: COC(=O)Cc1cc(=O)oc2cc(OP(=O)(O)O)ccc12
# [2] = substrate: O=C(O)CCNC(=O)Cc1cc(=O)oc2cc(OP(=O)(O)O)ccc12
# [3] = substrate: NC(=O)[C@H](Cc1ccc(OP(=O)(O)O)cc1)NC(=O)Cc1cc(=O)oc2cc(OP(=O)(O)O)ccc12
# [4] = substrate: O=C(Cc1cc(=O)oc2cc(OP(=O)(O)O)ccc12)NCCc1ccc(OP(=O)(O)O)cc1
# [5] = substrate: O=C(Cc1cc(=O)oc2cc(OP(=O)(O)O)ccc12)NCc1ccc(OP(=O)(O)O)cc1
# [6] = substrate: COC(=O)[C@H](Cc1ccc(OP(=O)(O)O)cc1)NC(=O)Cc1cc(=O)oc2cc(OP(=O)(O)O)ccc12
# [7] = substrate: O=C(Cc1cc(=O)oc2cc(OP(=O)(O)O)ccc12)NCCc1ccc(O)cc1
# [8] = substrate: O=C(Cc1cc(=O)oc2cc(OP(=O)(O)O)ccc12)OCc1ccccc1
# [9] = substrate: NC(=O)Cc1cc(=O)oc2cc(OP(=O)(O)O)ccc12
protein,measurement,setting,value
B1,Km,[1],147 µM
same,kcat,[1],8.2 s⁻¹
same,Km,[2],111 µM
same,kcat,[2],5.8 s⁻¹
same,Km,[3],149 µM
same,kcat,[3],3.2 s⁻¹
same,Km,[4],38 µM
same,kcat,[4],7.1 s⁻¹
same,Km,[5],25 µM
same,kcat,[5],5.2 s⁻¹
same,Km,[6],82 µM
same,kcat,[6],3.4 s⁻¹
same,kcat,[7],4.8 s⁻¹
same,Km,[8],36 µM
same,kcat,[8],10.5 s⁻¹
same,Km,[9],224 µM
same,kcat,[9],5 s⁻¹
